Data: publication PMC9482650, “Quantitative fragmentomics allow affinity mapping of interactomes” (Nature Communications, 2022)

What was measured:
Assay in all cases: holdup assay
Set-up in all cases: key: below the threshold = too weak to quantify, mostly under pKd 3.1 to 4
IL16_3, Q14005 = target: IL16_3, Q14005
PICK1, Q9NRD5 = target: PICK1, Q9NRD5
HTRA1, Q92743 = target: HTRA1, Q92743
MAGI3_2, Q5TCQ9 = target: MAGI3_2, Q5TCQ9
GRID2IP_2, A4D2P6 = target: GRID2IP_2, A4D2P6
TJP1_3, Q07157 = target: TJP1_3, Q07157
Chain of TJP1_3, Q07157 (Q07157 416-512): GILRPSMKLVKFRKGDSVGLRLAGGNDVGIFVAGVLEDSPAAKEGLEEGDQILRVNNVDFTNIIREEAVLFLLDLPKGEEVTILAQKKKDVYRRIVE

DLG1_3, Q12959 = target: DLG1_3, Q12959
Chain of DLG1_3, Q12959 (Q12959 457-571): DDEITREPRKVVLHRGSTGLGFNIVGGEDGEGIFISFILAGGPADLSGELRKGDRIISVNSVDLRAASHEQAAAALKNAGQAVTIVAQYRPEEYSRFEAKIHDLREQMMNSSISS

TJP1_2, Q07157 = target: TJP1_2, Q07157
Chain of TJP1_2, Q07157 (Q07157 181-274): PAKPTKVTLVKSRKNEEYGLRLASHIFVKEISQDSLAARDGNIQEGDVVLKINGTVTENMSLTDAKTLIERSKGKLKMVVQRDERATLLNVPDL

MAST1, Q9Y2H9 = target: MAST1, Q9Y2H9
Chain of MAST1, Q9Y2H9 (Q9Y2H9 962-1065): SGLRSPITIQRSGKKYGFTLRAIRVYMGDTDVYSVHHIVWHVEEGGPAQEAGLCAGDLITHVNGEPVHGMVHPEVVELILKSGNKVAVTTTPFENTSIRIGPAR

NHERF3_3, Q5T2W1 = target: T1, NHERF3_3, Q5T2W1
T1 sequence (Q5T2W1 238-333, limits assumed, looked up): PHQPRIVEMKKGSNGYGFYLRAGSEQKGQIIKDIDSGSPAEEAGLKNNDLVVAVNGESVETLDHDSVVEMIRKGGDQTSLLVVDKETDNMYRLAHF

ARHGEF11, O15085 = target: T2, ARHGEF11, O15085
T2 sequence (O15085 42-136, limits assumed, looked up): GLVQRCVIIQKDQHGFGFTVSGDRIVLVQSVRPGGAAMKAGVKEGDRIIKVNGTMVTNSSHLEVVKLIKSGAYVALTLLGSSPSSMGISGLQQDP

GRIP2_5, Q9C0E4 = target: GRIP2_5, Q9C0E4
Chain of GRIP2_5, Q9C0E4 (Q9C0E4 544-642): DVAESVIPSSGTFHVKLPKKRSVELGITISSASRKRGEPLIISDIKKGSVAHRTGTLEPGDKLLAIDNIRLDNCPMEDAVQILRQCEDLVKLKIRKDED

GRIP2_4, Q9C0E4 = target: GRIP2_4, Q9C0E4
Chain of GRIP2_4, Q9C0E4 (Q9C0E4 446-548): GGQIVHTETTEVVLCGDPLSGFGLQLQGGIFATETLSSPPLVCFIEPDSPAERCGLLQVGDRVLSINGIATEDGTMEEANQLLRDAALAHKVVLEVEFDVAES

Inadl_9, Q8NI35 = target: Inadl_9, Q8NI35
Chain of Inadl_9, Q8NI35 (Q8NI35 1530-1615): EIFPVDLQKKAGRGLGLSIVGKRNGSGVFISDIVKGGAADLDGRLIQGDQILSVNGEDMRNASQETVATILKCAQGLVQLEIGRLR

GOPC, Q9HD26 = target: GOPC, Q9HD26
GORASP2, Q9H8Y8 = target: GORASP2, Q9H8Y8
HTRA3, P83110 = target: T3, HTRA3, P83110
T3 sequence (P83110 354-453, limits assumed, looked up): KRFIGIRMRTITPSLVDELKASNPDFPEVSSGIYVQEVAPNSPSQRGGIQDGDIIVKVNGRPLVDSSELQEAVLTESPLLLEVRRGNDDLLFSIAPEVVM

LNX2_2, Q8N448 = target: T4, LNX2_2, Q8N448
T4 sequence (Q8N448 334-432, limits assumed, looked up): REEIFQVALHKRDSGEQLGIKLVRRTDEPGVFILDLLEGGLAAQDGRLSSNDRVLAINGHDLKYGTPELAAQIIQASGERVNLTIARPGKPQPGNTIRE

Inadl_1, Q8NI35 = target: Inadl_1, Q8NI35
Chain of Inadl_1, Q8NI35 (Q8NI35 113-229): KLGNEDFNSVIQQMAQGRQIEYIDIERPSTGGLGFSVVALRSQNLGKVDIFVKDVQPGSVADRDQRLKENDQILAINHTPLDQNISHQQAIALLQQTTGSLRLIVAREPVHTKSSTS

APBA2_2, Q99767 = target: T5, APBA2_2, Q99767
T5 sequence (Q99767 654-744, limits assumed, looked up): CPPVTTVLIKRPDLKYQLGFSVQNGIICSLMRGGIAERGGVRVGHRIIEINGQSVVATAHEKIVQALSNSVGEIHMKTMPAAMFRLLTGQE

DFNB31_2, Q9P202 = target: T6, DFNB31_2, Q9P202
T6 sequence (Q9P202 274-371, limits assumed, looked up): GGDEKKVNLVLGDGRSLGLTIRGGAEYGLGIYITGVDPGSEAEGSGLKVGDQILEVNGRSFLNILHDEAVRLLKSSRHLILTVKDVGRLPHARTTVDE

LNX2_3, Q8N448 = target: T7, LNX2_3, Q8N448
T7 sequence (Q8N448 463-564, limits assumed, looked up): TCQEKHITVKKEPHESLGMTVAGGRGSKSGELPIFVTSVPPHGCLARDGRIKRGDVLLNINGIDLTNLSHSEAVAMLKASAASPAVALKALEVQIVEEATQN

DFNB31_3, Q9P202 = target: T8, DFNB31_3, Q9P202
T8 sequence (Q9P202 811-907, limits assumed, looked up): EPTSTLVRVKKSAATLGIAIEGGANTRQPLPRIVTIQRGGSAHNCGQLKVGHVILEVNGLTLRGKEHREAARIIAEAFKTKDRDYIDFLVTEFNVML

SNX27, Q96L92 = target: SNX27, Q96L92
Inadl_5, Q8NI35 = target: Inadl_5, Q8NI35
Chain of Inadl_5, Q8NI35 (Q8NI35 673-780): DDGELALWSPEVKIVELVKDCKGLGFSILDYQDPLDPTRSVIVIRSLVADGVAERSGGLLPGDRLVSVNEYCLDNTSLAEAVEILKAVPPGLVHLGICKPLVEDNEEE

Inadl_4, Q8NI35 = target: Inadl_4, Q8NI35
Chain of Inadl_4, Q8NI35 (Q8NI35 547-651): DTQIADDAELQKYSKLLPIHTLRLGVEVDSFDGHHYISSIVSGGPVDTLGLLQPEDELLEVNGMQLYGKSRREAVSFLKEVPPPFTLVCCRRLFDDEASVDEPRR

HTRA2, O43464 = target: HTRA2, O43464
Chain of HTRA2, O43464 (O43464 355-458): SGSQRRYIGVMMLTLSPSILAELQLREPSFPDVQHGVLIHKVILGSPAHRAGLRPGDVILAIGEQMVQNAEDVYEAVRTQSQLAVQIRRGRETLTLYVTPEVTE

MAGI1_1, Q96QZ7 = target: MAGI1_1, Q96QZ7
Chain of MAGI1_1, Q96QZ7 (Q96QZ7 1-106): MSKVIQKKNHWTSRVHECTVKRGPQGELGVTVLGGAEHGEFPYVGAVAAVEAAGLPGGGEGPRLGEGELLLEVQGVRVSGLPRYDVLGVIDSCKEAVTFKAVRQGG

MPDZ_10, O75970 = target: T9, MPDZ_10, O75970
T9 sequence (O75970 1624-1722, limits assumed, looked up): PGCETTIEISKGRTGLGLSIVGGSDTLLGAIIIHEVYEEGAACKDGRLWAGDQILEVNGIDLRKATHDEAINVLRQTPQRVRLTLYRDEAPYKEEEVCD

[1] = plain residues with an end cap or a label only (N-terminal biotin on a linker: ttds)
[2] = plain residues with an end cap or a label only (N-terminal biotin on a linker: ahx)

Chain of GRID2IP_2, A4D2P6 (A4D2P6 272-370): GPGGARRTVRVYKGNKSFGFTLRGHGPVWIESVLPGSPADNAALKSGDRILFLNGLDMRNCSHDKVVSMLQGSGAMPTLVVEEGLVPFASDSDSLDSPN
Chain of HTRA1, Q92743 (Q92743 360-477): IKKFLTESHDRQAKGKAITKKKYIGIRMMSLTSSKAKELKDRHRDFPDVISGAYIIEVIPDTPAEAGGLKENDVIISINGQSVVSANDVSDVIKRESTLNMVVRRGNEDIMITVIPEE
Chain of IL16_3, Q14005 (Q14005 1107-1207): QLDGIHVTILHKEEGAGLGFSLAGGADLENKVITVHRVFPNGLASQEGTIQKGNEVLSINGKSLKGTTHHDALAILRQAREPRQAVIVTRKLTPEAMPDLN
Chain of MAGI3_2, Q5TCQ9 (Q5TCQ9 398-503): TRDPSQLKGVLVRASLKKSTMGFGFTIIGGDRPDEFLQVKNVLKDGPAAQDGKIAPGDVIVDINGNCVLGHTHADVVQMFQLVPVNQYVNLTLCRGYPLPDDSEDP
Chain of PICK1, Q9NRD5 (Q9NRD5 17-115): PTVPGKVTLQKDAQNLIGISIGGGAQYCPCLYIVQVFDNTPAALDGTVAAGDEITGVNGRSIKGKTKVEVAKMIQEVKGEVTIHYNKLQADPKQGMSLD

CLDTSRETDL [KCNA5, P22460]
pKd (IL16_3, Q14005; [1]): below the threshold
pKd (PICK1, Q9NRD5; [1]): below the threshold
pKd (HTRA1, Q92743; [1]): below the threshold
pKd (MAGI3_2, Q5TCQ9; [1]): below the threshold
pKd (GRID2IP_2, A4D2P6; [1]): 3.7
pKd (TJP1_3, Q07157; [1]): below the threshold
pKd (DLG1_3, Q12959; [1]): 3.57
pKd (TJP1_2, Q07157; [1]): below the threshold
pKd (MAST1, Q9Y2H9; [1]): 4.91
pKd (NHERF3_3, Q5T2W1; [1]): below the threshold
pKd (ARHGEF11, O15085; [1]): 4
pKd (GRIP2_5, Q9C0E4; [1]): below the threshold
pKd (GRIP2_4, Q9C0E4; [1]): below the threshold
pKd (Inadl_9, Q8NI35; [1]): below the threshold
pKd (GOPC, Q9HD26; [1]): below the threshold
pKd (GORASP2, Q9H8Y8; [1]): 3.58
pKd (HTRA3, P83110; [1]): below the threshold
pKd (LNX2_2, Q8N448; [1]): below the threshold
pKd (Inadl_1, Q8NI35; [1]): below the threshold
pKd (APBA2_2, Q99767; [1]): below the threshold
pKd (DFNB31_2, Q9P202; [1]): below the threshold
pKd (LNX2_3, Q8N448; [1]): below the threshold
pKd (DFNB31_3, Q9P202; [1]): below the threshold
pKd (SNX27, Q96L92; [1]): 4.44
pKd (Inadl_5, Q8NI35; [1]): below the threshold
pKd (Inadl_4, Q8NI35; [1]): below the threshold
pKd (HTRA2, O43464; [1]): below the threshold
pKd (MAGI1_1, Q96QZ7; [1]): below the threshold
pKd (MPDZ_10, O75970; [1]): below the threshold

EDEDEQVSAV [RAPGEF2, Q9Y4G8]
pKd (IL16_3, Q14005; [2]): below the threshold
pKd (PICK1, Q9NRD5; [2]): below the threshold
pKd (HTRA1, Q92743; [2]): 4.18
pKd (MAGI3_2, Q5TCQ9; [2]): below the threshold
pKd (GRID2IP_2, A4D2P6; [2]): 4.28
pKd (TJP1_3, Q07157; [2]): below the threshold
pKd (DLG1_3, Q12959; [2]): below the threshold
pKd (TJP1_2, Q07157; [2]): below the threshold
pKd (MAST1, Q9Y2H9; [2]): 4.22
pKd (NHERF3_3, Q5T2W1; [2]): below the threshold
pKd (ARHGEF11, O15085; [2]): 4.1
pKd (GRIP2_5, Q9C0E4; [2]): below the threshold
pKd (GRIP2_4, Q9C0E4; [2]): below the threshold
pKd (Inadl_9, Q8NI35; [2]): below the threshold
pKd (GOPC, Q9HD26; [2]): below the threshold
pKd (GORASP2, Q9H8Y8; [2]): below the threshold
pKd (HTRA3, P83110; [2]): below the threshold
pKd (LNX2_2, Q8N448; [2]): below the threshold
pKd (Inadl_1, Q8NI35; [2]): below the threshold
pKd (APBA2_2, Q99767; [2]): below the threshold
pKd (DFNB31_2, Q9P202; [2]): below the threshold
pKd (LNX2_3, Q8N448; [2]): below the threshold
pKd (DFNB31_3, Q9P202; [2]): below the threshold
pKd (SNX27, Q96L92; [2]): 5.32
pKd (Inadl_5, Q8NI35; [2]): below the threshold
pKd (Inadl_4, Q8NI35; [2]): below the threshold
pKd (HTRA2, O43464; [2]): below the threshold
pKd (MAGI1_1, Q96QZ7; [2]): below the threshold
pKd (MPDZ_10, O75970; [2]): 3.82

KKNKDKEYYV [NRXN1, Q9ULB1]
pKd (IL16_3, Q14005; [2]): below the threshold
pKd (PICK1, Q9NRD5; [2]): below the threshold
pKd (HTRA1, Q92743; [2]): 4.84
pKd (MAGI3_2, Q5TCQ9; [2]): 4.6
pKd (GRID2IP_2, A4D2P6; [2]): below the threshold
pKd (TJP1_3, Q07157; [2]): below the threshold
pKd (DLG1_3, Q12959; [2]): below the threshold
pKd (TJP1_2, Q07157; [2]): below the threshold
pKd (MAST1, Q9Y2H9; [2]): below the threshold
pKd (NHERF3_3, Q5T2W1; [2]): below the threshold
pKd (ARHGEF11, O15085; [2]): below the threshold
pKd (GRIP2_5, Q9C0E4; [2]): below the threshold
pKd (GRIP2_4, Q9C0E4; [2]): below the threshold
pKd (Inadl_9, Q8NI35; [2]): 3.97
pKd (GOPC, Q9HD26; [2]): below the threshold
pKd (GORASP2, Q9H8Y8; [2]): 4.33
pKd (HTRA3, P83110; [2]): 4.2
pKd (LNX2_2, Q8N448; [2]): 4.16
pKd (Inadl_1, Q8NI35; [2]): below the threshold
pKd (APBA2_2, Q99767; [2]): below the threshold
pKd (DFNB31_2, Q9P202; [2]): below the threshold
pKd (LNX2_3, Q8N448; [2]): below the threshold
pKd (DFNB31_3, Q9P202; [2]): below the threshold
pKd (SNX27, Q96L92; [2]): below the threshold
pKd (Inadl_5, Q8NI35; [2]): 4.25
pKd (Inadl_4, Q8NI35; [2]): below the threshold
pKd (HTRA2, O43464; [2]): below the threshold
pKd (MAGI1_1, Q96QZ7; [2]): below the threshold
pKd (MPDZ_10, O75970; [2]): below the threshold

TEEEVQDTRL [CFTR, P13569]
pKd (IL16_3, Q14005; [1]): below the threshold
pKd (PICK1, Q9NRD5; [1]): below the threshold
pKd (HTRA1, Q92743; [1]): below the threshold
pKd (MAGI3_2, Q5TCQ9; [1]): below the threshold
pKd (GRID2IP_2, A4D2P6; [1]): below the threshold
pKd (TJP1_3, Q07157; [1]): below the threshold
pKd (DLG1_3, Q12959; [1]): below the threshold
pKd (TJP1_2, Q07157; [1]): below the threshold
pKd (MAST1, Q9Y2H9; [1]): 4.77
pKd (NHERF3_3, Q5T2W1; [1]): 3.79
pKd (ARHGEF11, O15085; [1]): below the threshold
pKd (GRIP2_5, Q9C0E4; [1]): below the threshold
pKd (GRIP2_4, Q9C0E4; [1]): below the threshold
pKd (Inadl_9, Q8NI35; [1]): below the threshold
pKd (GORASP2, Q9H8Y8; [1]): below the threshold
pKd (HTRA3, P83110; [1]): below the threshold
pKd (LNX2_2, Q8N448; [1]): below the threshold
pKd (Inadl_1, Q8NI35; [1]): below the threshold
pKd (APBA2_2, Q99767; [1]): below the threshold
pKd (DFNB31_2, Q9P202; [1]): below the threshold
pKd (LNX2_3, Q8N448; [1]): below the threshold
pKd (DFNB31_3, Q9P202; [1]): below the threshold
pKd (SNX27, Q96L92; [1]): 5.56
pKd (Inadl_5, Q8NI35; [1]): below the threshold
pKd (Inadl_4, Q8NI35; [1]): below the threshold
pKd (HTRA2, O43464; [1]): below the threshold
pKd (MAGI1_1, Q96QZ7; [1]): below the threshold
pKd (MPDZ_10, O75970; [1]): below the threshold

LCKSHAFSHV [PDLIM7, Q9NR12;Q9NR12-1]
pKd (IL16_3, Q14005; [2]): below the threshold
pKd (PICK1, Q9NRD5; [2]): below the threshold
pKd (MAGI3_2, Q5TCQ9; [2]): 4.3
pKd (TJP1_3, Q07157; [2]): below the threshold
pKd (DLG1_3, Q12959; [2]): below the threshold
pKd (TJP1_2, Q07157; [2]): below the threshold
pKd (NHERF3_3, Q5T2W1; [2]): below the threshold
pKd (GRIP2_5, Q9C0E4; [2]): below the threshold
pKd (GRIP2_4, Q9C0E4; [2]): below the threshold
pKd (Inadl_9, Q8NI35; [2]): below the threshold
pKd (GOPC, Q9HD26; [2]): below the threshold
pKd (GORASP2, Q9H8Y8; [2]): below the threshold
pKd (HTRA3, P83110; [2]): below the threshold
pKd (LNX2_2, Q8N448; [2]): below the threshold
pKd (Inadl_1, Q8NI35; [2]): below the threshold
pKd (APBA2_2, Q99767; [2]): below the threshold
pKd (DFNB31_2, Q9P202; [2]): below the threshold
pKd (LNX2_3, Q8N448; [2]): below the threshold
pKd (DFNB31_3, Q9P202; [2]): below the threshold
pKd (SNX27, Q96L92; [2]): below the threshold
pKd (Inadl_5, Q8NI35; [2]): below the threshold
pKd (Inadl_4, Q8NI35; [2]): below the threshold
pKd (HTRA2, O43464; [2]): below the threshold
pKd (MAGI1_1, Q96QZ7; [2]): below the threshold
pKd (MPDZ_10, O75970; [2]): 4.07
